Data from the Human Domainome abundance scans (Beltran et al. 2025).
± gives the uncertainty stated by the source.

B1: POU domain, class 3, transcription factor 2, residues 356 to 411; numbered along this chain, P20265 (parent)
chain: KKRTSIEVSVKGALESHFLKCPKPSAQEITSLADSLQLEKEVVRVWFCNRRQKEKR

Variants of: B1
Assay: abundance fitness (aPCA) (normalised: wild type 0, dead -1); higher = more abundant; growth selection in yeast, the domain comes from the species named
Conditions: Homo sapiens

Q: For KKRTSIEVSVKGALESHFLKCPKPSAQEITSLADSLQLEKEVVRVWFCNRRQKEER [K55E], which abundance fitness is on record?
A: The abundance fitness was 0.093 ± 0.14.

Q: Which abundance fitness does the source give for KKRTSIEVSVKGALESHFLKCPKPSAQEITSLADSLQLEKEVVRVWFCNRRQKEPR [K55P] here?
A: The abundance fitness was -0.396 ± 0.16.

Q: With KKRTSIEVSVKGALESHFLKCPKPSAQEITSLADSLQLEKEVVRVWFCNRRQKETR [K55T] as the variant, how does the abundance fitness read?
A: The abundance fitness was -0.029 ± 0.13.

Q: Which abundance fitness does the source give for KKRTSIEVSVKGALESHFLKCPKPSAQEITSLADSLQLEKEVVRVWFCNRRQKEVR [K55V] here?
A: Its abundance fitness is -0.116 ± 0.1.

Q: With KKRTSIEVSVKGALESHFLKCPKPSAQEITSLADSLQLEKEVVRVWFCNRRQKESR [K55S] as the variant, how does the abundance fitness read?
A: Its abundance fitness is 0.024 ± 0.099.

Q: For KKRTSIEVSVKGALESHFLKCPKPSAQEITSLADSLQLEKEVVRVWFCNRRQKEYR [K55Y], which abundance fitness is on record?
A: Its abundance fitness is -0.019 ± 0.14.

Q: Which abundance fitness does the source give for KKRTSIEVSVKGALESHFLKCPKPSAQEITSLADSLQLEKEVVRVWFCNRRQKEQR [K55Q] here?
A: The abundance fitness was -0.244 ± 0.2.

Q: With KKRTSIEVSVKGALESHFLKCPKPSAQEITSLADSLQLEKEVVRVWFCNRRQKEHR [K55H] as the variant, how does the abundance fitness read?
A: Its abundance fitness is -0.274 ± 0.25.

Q: With KKRTSIEVSVKGALESHFLKCPKPSAQEITSLADSLQLEKEVVRVWFCNRRQKEWR [K55W] as the variant, how does the abundance fitness read?
A: Its abundance fitness is -0.187 ± 0.13.

Q: For KKRTSIEVSVKGALESHFLKCPKPSAQEITSLADSLQLEKEVVRVWFCNRRQKEFR [K55F], which abundance fitness is on record?
A: The abundance fitness was -0.167 ± 0.14.

Q: For KKRTSIEVSVKGALESHFLKCPKPSAQEITSLADSLQLEKEVVRVWFCNRRQKENR [K55N], which abundance fitness is on record?
A: Its abundance fitness is -0.046 ± 0.15.

Q: Which abundance fitness does the source give for KKRTSIEVSVKGALESHFLKCPKPSAQEITSLADSLQLEKEVVRVWFCNRRQKEIR [K55I] here?
A: The abundance fitness was -0.036 ± 0.13.

Q: For KKRTSIEVSVKGALESHFLKCPKPSAQEITSLADSLQLEKEVVRVWFCNRRQKECR [K55C], which abundance fitness is on record?
A: The abundance fitness was -0.33 ± 0.16.

Q: For KKRTSIEVSVKGALESHFLKCPKPSAQEITSLADSLQLEKEVVRVWFCNRRQKELR [K55L], which abundance fitness is on record?
A: Its abundance fitness is -0.087 ± 0.084.

Q: For KKRTSIEVSVKGALESHFLKCPKPSAQEITSLADSLQLEKEVVRVWFCNRRQKEAR [K55A], which abundance fitness is on record?
A: Its abundance fitness is 0.139 ± 0.12.

Q: With KKRTSIEVSVKGALESHFLKCPKPSAQEITSLADSLQLEKEVVRVWFCNRRQKEMR [K55M] as the variant, how does the abundance fitness read?
A: The abundance fitness was -0.056 ± 0.14.

Q: Which abundance fitness does the source give for KKRTSIEVSVKGALESHFLKCPKPSAQEITSLADSLQLEKEVVRVWFCNRRQKERR [K55R] here?
A: Its abundance fitness is -0.211 ± 0.11.

Q: With KKRTSIEVSVKGALESHFLKCPKPSAQEITSLADSLQLEKEVVRVWFCNRRQKEDR [K55D] as the variant, how does the abundance fitness read?
A: Its abundance fitness is 0.036 ± 0.16.

Q: With KKRTSIEVSVKGALESHFLKCPKPSAQEITSLADSLQLEKEVVRVWFCNRRQKEGR [K55G] as the variant, how does the abundance fitness read?
A: The abundance fitness was -0.029 ± 0.1.

Q: With KKRTSIEVSVKGALESHFLKCPKPSAQEITSLADSLQLEKEVVRVWFCNRRQKEKQ [R56Q] as the variant, how does the abundance fitness read?
A: Its abundance fitness is -0.119 ± 0.29.

Q: With KKRTSIEVSVKGALESHFLKCPKPSAQEITSLADSLQLEKEVVRVWFCNRRQKEKI [R56I] as the variant, how does the abundance fitness read?
A: The abundance fitness was -0.508 ± 0.48.

Q: For KKRTSIEVSVKGALESHFLKCPKPSAQEITSLADSLQLEKEVVRVWFCNRRQKEKA [R56A], which abundance fitness is on record?
A: Its abundance fitness is -0.335 ± 0.23.

Q: Which abundance fitness does the source give for KKRTSIEVSVKGALESHFLKCPKPSAQEITSLADSLQLEKEVVRVWFCNRRQKEKP [R56P] here?
A: The abundance fitness was -0.58 ± 0.29.

Q: Which abundance fitness does the source give for KKRTSIEVSVKGALESHFLKCPKPSAQEITSLADSLQLEKEVVRVWFCNRRQKEKL [R56L] here?
A: The abundance fitness was 0.131 ± 0.14.

Q: With KKRTSIEVSVKGALESHFLKCPKPSAQEITSLADSLQLEKEVVRVWFCNRRQKEKG [R56G] as the variant, how does the abundance fitness read?
A: The abundance fitness was 0.042 ± 0.1.

Q: Which abundance fitness does the source give for KKRTSIEVSVKGALESHFLKCPKPSAQEITSLADSLQLEKEVVRVWFCNRRQKEKC [R56C] here?
A: Its abundance fitness is 0.045 ± 0.24.

Q: For KKRTSIEVSVKGALESHFLKCPKPSAQEITSLADSLQLEKEVVRVWFCNRRQKEKS [R56S], which abundance fitness is on record?
A: Its abundance fitness is -0.194 ± 0.14.

Q: Which abundance fitness does the source give for KKRTSIEVSVKGALESHFLKCPKPSAQEITSLADSLQLEKEVVRVWFCNRRQKEKM [R56M] here?
A: The abundance fitness was 0.157 ± 0.18.

Q: Which abundance fitness does the source give for KKRTSIEVSVKGALESHFLKCPKPSAQEITSLADSLQLEKEVVRVWFCNRRQKEKN [R56N] here?
A: The abundance fitness was 0.008 ± 0.42.

Q: With KKRTSIEVSVKGALESHFLKCPKPSAQEITSLADSLQLEKEVVRVWFCNRRQKEKE [R56E] as the variant, how does the abundance fitness read?
A: The abundance fitness was -0.031 ± 0.21.

Q: For KKRTSIEVSVKGALESHFLKCPKPSAQEITSLADSLQLEKEVVRVWFCNRRQKEKD [R56D], which abundance fitness is on record?
A: The abundance fitness was 0.12 ± 0.18.

Q: For KKRTSIEVSVKGALESHFLKCPKPSAQEITSLADSLQLEKEVVRVWFCNRRQKTKR [E54T], which abundance fitness is on record?
A: Its abundance fitness is -0.518 ± 0.15.

Q: With KKRTSIEVSVKGALESHFLKCPKPSAQEITSLADSLQLEKEVVRVWFCNRRQKNKR [E54N] as the variant, how does the abundance fitness read?
A: The abundance fitness was -0.407 ± 0.21.

Q: For KKRTSIEVSVKGALESHFLKCPKPSAQEITSLADSLQLEKEVVRVWFCNRRQKWKR [E54W], which abundance fitness is on record?
A: Its abundance fitness is -0.581 ± 0.12.

Q: With KKRTSIEVSVKGALESHFLKCPKPSAQEITSLADSLQLEKEVVRVWFCNRRQKQKR [E54Q] as the variant, how does the abundance fitness read?
A: The abundance fitness was -0.177 ± 0.16.

Q: Which abundance fitness does the source give for KKRTSIEVSVKGALESHFLKCPKPSAQEITSLADSLQLEKEVVRVWFCNRRQKVKR [E54V] here?
A: Its abundance fitness is -0.466 ± 0.096.

Q: With KKRTSIEVSVKGALESHFLKCPKPSAQEITSLADSLQLEKEVVRVWFCNRRQKKKR [E54K] as the variant, how does the abundance fitness read?
A: Its abundance fitness is -0.495 ± 0.18.

Q: For KKRTSIEVSVKGALESHFLKCPKPSAQEITSLADSLQLEKEVVRVWFCNRRQKSKR [E54S], which abundance fitness is on record?
A: The abundance fitness was -0.538 ± 0.1.

Q: For KKRTSIEVSVKGALESHFLKCPKPSAQEITSLADSLQLEKEVVRVWFCNRRQKRKR [E54R], which abundance fitness is on record?
A: Its abundance fitness is -0.472 ± 0.085.

Q: For KKRTSIEVSVKGALESHFLKCPKPSAQEITSLADSLQLEKEVVRVWFCNRRQKHKR [E54H], which abundance fitness is on record?
A: The abundance fitness was -0.417 ± 0.28.

Q: For KKRTSIEVSVKGALESHFLKCPKPSAQEITSLADSLQLEKEVVRVWFCNRRQKGKR [E54G], which abundance fitness is on record?
A: Its abundance fitness is -0.454 ± 0.094.

Q: With KKRTSIEVSVKGALESHFLKCPKPSAQEITSLADSLQLEKEVVRVWFCNRRQKPKR [E54P] as the variant, how does the abundance fitness read?
A: Its abundance fitness is -0.861 ± 0.19.

Q: For KKRTSIEVSVKGALESHFLKCPKPSAQEITSLADSLQLEKEVVRVWFCNRRQKLKR [E54L], which abundance fitness is on record?
A: Its abundance fitness is -0.313 ± 0.095.

Q: With KKRTSIEVSVKGALESHFLKCPKPSAQEITSLADSLQLEKEVVRVWFCNRRQKFKR [E54F] as the variant, how does the abundance fitness read?
A: Its abundance fitness is -0.764 ± 0.22.

Q: For KKRTSIEVSVKGALESHFLKCPKPSAQEITSLADSLQLEKEVVRVWFCNRRQKIKR [E54I], which abundance fitness is on record?
A: The abundance fitness was -0.665 ± 0.15.

Q: With KKRTSIEVSVKGALESHFLKCPKPSAQEITSLADSLQLEKEVVRVWFCNRRQKYKR [E54Y] as the variant, how does the abundance fitness read?
A: Its abundance fitness is -0.337 ± 0.17.

Q: Which abundance fitness does the source give for KKRTSIEVSVKGALESHFLKCPKPSAQEITSLADSLQLEKEVVRVWFCNRRQKMKR [E54M] here?
A: The abundance fitness was -0.407 ± 0.18.
